Values joined by “and” are separate entries in the source; they are usually repeats but may differ in a detail not shown here. Identical values can stand only once.
What was measured:
[1] = target: the molecule itself; assay: SAXS with in-line size exclusion chromatography; SpNanR without N-acetylmannosamine-6-phosphate
[2] = target: the molecule itself; assay: AUC; sedimentation velocity, SpNanR 0.27–153.5 μM with 2 mM N-acetylmannosamine-6-phosphate, 20 mM Tris–HCl pH 8.0, 300 mM NaCl, 20°C, 42 000 rpm; constant of: tetramer to dimers
[3] = target: the molecule itself; assay: AUC; sedimentation velocity, SpNanR 4.3–227.7 μM without N-acetylmannosamine-6-phosphate, 20 mM Tris–HCl pH 8.0, 300 mM NaCl, 20°C, 42 000 rpm; weight-averaged s fitted to a dimer–tetramer self-association model; constant of: tetramer to dimers
[4] = target: the molecule itself; assay: AUC; sedimentation velocity of SpNanR variants and wild type at 15 μM, with N-acetylmannosamine-6-phosphate
[5] = target: the molecule itself; assay: AUC; sedimentation velocity of SpNanR variants and wild type at 15 μM, without N-acetylmannosamine-6-phosphate
[6] = target: T1, SpNanR (Streptococcus pneumoniae, UniProt A0A0H2ZPE9 1-283); assay: MST; protein up to 5000 nM; MST: 20 mM Tris-HCl pH 8.0, 300 mM NaCl, 0.05% Tween-20, 20 C, 20 nM FAM-DNA; AUC: 50 nM FAM-DNA, 0.019-5 uM SpNanR, buffer not in the material; conditions: protein: recombinant; tags: none; chain copies: 2; label: 5'-FAM on sense strand
[7] = target: SpNanR R56A (Streptococcus pneumoniae, UniProt A0A0H2ZPE9 1-283, R56A); assay: as above; conditions: protein: recombinant; tags: none; chain copies: 2; label: 5'-FAM on sense strand
[8] = target: SpNanR T18A (Streptococcus pneumoniae, UniProt A0A0H2ZPE9 1-283, T18A); assay: as above; conditions: protein: recombinant; tags: none; chain copies: 2; label: 5'-FAM on sense strand
[9] = target: SpNanR R67A (Streptococcus pneumoniae, UniProt A0A0H2ZPE9 1-283, R67A); assay: as above; conditions: protein: recombinant; tags: none; chain copies: 2; label: 5'-FAM on sense strand
[10] = target: T1, SpNanR; assay: MST; range over three sites; MST: 20 mM Tris-HCl pH 8.0, 300 mM NaCl, 0.05% Tween-20, 20 C, 20 nM FAM-DNA; AUC: 50 nM FAM-DNA, 0.019-5 uM SpNanR, buffer not in the material; conditions: protein: recombinant; tags: none; chain copies: 2; label: 5'-FAM on sense strand
[11] = target: T1, SpNanR; assay: fluorescence-detection AUC (sedimentation velocity); no effector; Hill n 2.3; MST: 20 mM Tris-HCl pH 8.0, 300 mM NaCl, 0.05% Tween-20, 20 C, 20 nM FAM-DNA; AUC: 50 nM FAM-DNA, 0.019-5 uM SpNanR, buffer not in the material; conditions: protein: recombinant; tags: none; chain copies: 2; label: 5'-FAM on sense strand

B1: Streptococcus pneumoniae NanR (SpNanR), wild type (natural protein, UniProt A0A0H2ZPE9 1-283, looked up)
chain: MDKPDIATIIDSHFEEMTDLEQEIARYFLQAETITDDLSSQQVTQKLHISQAALTRFAKKCGFTGYREFIFQYQHQAENQANQVSKHSPLTKRVLRSYSNMREQTQDLIDEIQLERIAQLIEDAERIYFFGTGSSGLVAREMKLRFMRLGVVCEALTDQDGFAWTTSIMDENCLVLGFSLSGSTPSILDSLLDAKEMGAKTVLFTSVPNKNSQTYTETVLVATHSQPSYIQRISAQLPMLFFIDLIYAYFLEINRESKEKIFNSYWENKKLNGYRRQKRVRKS
notes: RpiR family transcriptional regulator NanR of Streptococcus pneumoniae, recombinant full length; intact mass 32 611 Da; Self-associates between dimer and tetramer; cloned into pET30ΔSE; no tag; also called SpNanR^WT; apo-SpNanR
- stoichiometry N [1]: 4 and 2
- Kd [2]: < 200 nM
- Kd [3]: 97000 nM

B2: SpNanR^D160A (natural protein)
chain: MDKPDIATIIDSHFEEMTDLEQEIARYFLQAETITDDLSSQQVTQKLHISQAALTRFAKKCGFTGYREFIFQYQHQAENQANQVSKHSPLTKRVLRSYSNMREQTQDLIDEIQLERIAQLIEDAERIYFFGTGSSGLVAREMKLRFMRLGVVCEALTDQAGFAWTTSIMDENCLVLGFSLSGSTPSILDSLLDAKEMGAKTVLFTSVPNKNSQTYTETVLVATHSQPSYIQRISAQLPMLFFIDLIYAYFLEINRESKEKIFNSYWENKKLNGYRRQKRVRKS
notes: NanR of Streptococcus pneumoniae with D160A; Variant of the full-length recombinant SpNanR; source: E. coli BL21(DE3), recombinant
- stoichiometry N [4]: 4
- stoichiometry N [5]: 2

B3: SpNanR^R148A (natural protein)
chain: MDKPDIATIIDSHFEEMTDLEQEIARYFLQAETITDDLSSQQVTQKLHISQAALTRFAKKCGFTGYREFIFQYQHQAENQANQVSKHSPLTKRVLRSYSNMREQTQDLIDEIQLERIAQLIEDAERIYFFGTGSSGLVAREMKLRFMALGVVCEALTDQDGFAWTTSIMDENCLVLGFSLSGSTPSILDSLLDAKEMGAKTVLFTSVPNKNSQTYTETVLVATHSQPSYIQRISAQLPMLFFIDLIYAYFLEINRESKEKIFNSYWENKKLNGYRRQKRVRKS
notes: NanR of Streptococcus pneumoniae with R148A; Variant of the full-length recombinant SpNanR; source: E. coli BL21(DE3), recombinant
- stoichiometry N [5]: 2

B4: nanE G4T (dsDNA)
DNA 1: TCTTAAAGTACTTTTAGA
DNA 2: TCTAAAAGTACTTTAAGA
- binding result [6]: no binding

B5: nanE recognition sequence (site 2), FAM (dsDNA)
DNA 1: TCTGAAAGTACTTTTAGA
DNA 2: TCTAAAAGTACTTTCAGA
- binding result [7]: no binding
- binding result [8]: no binding
- binding result [9]: no binding
- Kd [10]: ~603 nM
- Kd [11]: 476 ± 75 nM

B6: cryptic site downstream of siaA operon (site 4) (dsDNA)
DNA 1: TCTGAAACTACTTTCAGA
DNA 2: TCTGAAAGTAGTTTCAGA
- Kd [10]: ~603 nM

B7: nanA recognition sequence (site 1) (dsDNA)
DNA 1: TCTGAAACTACTTTCAAA
DNA 2: TTTGAAAGTAGTTTCAGA
- Kd [10]: ~603 nM

B8: nanE A10C (dsDNA)
DNA 1: TCTGAAAGTCCTTTTAGA
DNA 2: TCTAAAAGGACTTTCAGA
- binding result [6]: no binding

Reference: article PMC13635753, “Mechanism of NanR transcriptional activation of sialic acid metabolism in Streptococcus pneumoniae” (Nucleic Acids Research, 2025)
